Experimental findings from article PMC7589169, “High-Resolution Crystal Structure of Chloroplastic Ribose-5-Phosphate Isomerase from Chlamydomonas reinhardtii—An Enzyme Involved in the Photosynthetic Calvin-Benson Cycle” (International Journal of Molecular Sciences, 2020) are described below.

Data set [1] deals with the molecule itself. Put plainly: SEC; purified CrRPI1 on two different gel filtration matrices (Superose 6 increase; BioSEC-3 300), buffer C (20 mM Tris-HCl pH 7.9, 100 mmol/L NaCl); oligomer state from apparent molecular weight. On the technique in general: SEC sorts molecules by how far they enter the pores of the column.
Data set [2] deals with the molecule itself. Nature of the data set: SEC-SAXS; 50 µL of CrRPI1 at 10 mg/mL on BioSEC-3 300 column in buffer C in series with the SAXS capillary (SWING, SOLEIL); molecular weight from scattering, curve fitted to the crystallographic dimer.

B1: Chlamydomonas reinhardtii chloroplastic ribose-5-phosphate isomerase 1 (CrRPI1) (enzyme, UniProt A8IRQ1 23-269, looked up)
chain: MAAPVSTQLSQDELKKQAAWKAVEYVKSGMVVGLGTGSTAAFAVDRIGQLLKEGKLQNIVGVPTSIRTYEQALSLGIPLATLDEQPKLDVAIDGADEVDPNLDVVKGRGGALLREKMVEMASAKFVCIVDDSKLVEGLGGSKLAMPVEIVQFCHKYTLQRLANLPEVKGCEAKLRMNGDKPYVTDNSNYIVDLYFQTPIKDSQAASKAILGLDGVVDHGLFLDMVDVCIIAGATGVTVQERPNPKKH
notes: residues numbered according to UniProtKB entry A8IRQ1; Theoretical Mw of the recombinant monomer is printed as 27,551 Da; The forward primer introduces an NcoI site at the start codon; source: E. coli BL21(DE3) Rosetta-2 pLysS, purified (NiNTA)
With B1, the stoichiometry N (as a rule, the number of molecules, sites or subunits per partner or assembly) in data set [1] was 2; in data set [2], 1.78 to 2.
